# Tests used:
# HeLa Kyoto [1] = test: solubility in G1/S (NP-40 vs SDS abundance) (log2 ratio); higher = more soluble; conditions: cell cycle stage: G1/S
# HeLa Kyoto [2] = test: solubility change mitosis vs G1/S (difference of NP-40 vs SDS log2 ratios) (log2 ratio difference); higher = more soluble in mitosis
# 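Wherever solubility change mitosis vs G1/S (difference of NP-40 vs SDS log2 ratios) is given: synchronized HeLa Kyoto cells (double thymidine block for G1/S, nocodazole release for mitosis), protein amounts in NP-40 versus SDS lysates quantified by mass spectrometry, three biological replicates.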
# 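Wherever solubility in G1/S (NP-40 vs SDS abundance) is given: HeLa Kyoto cells arrested at G1/S by double thymidine block, proteins quantified by TMT10plex mass spectrometry in mild NP-40 versus SDS extracts, three biological replicates.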
Substance,solubility in G1/S (log2) (HeLa Kyoto [1]),solubility change mitosis (log2) (HeLa Kyoto [2])
MAGTALKRLMAEYKQLTLNPPEGIVAGPMNEENFFEWEALIMGPEDTCFEFGVFPAILSFPLDYPLSPPKMRFTCEMFHPNIYPDGRVCISILHAPGDDPMGYESSAERWSPVQSVEKILLSVVSMLAEPNDESGANVDASKMWRDDREQFYKIAKQIVQKSLGL [UBE2G2],0.6,0.17
MALDPADQHLRHVEKDVLIPKIMREKAKERCSEQVQDFTKCCKNSGVLMVVKCRKENSALKECLTAYYNDPAFYEECKMEYLKEREEFRKTGIPTKKRLQKLPTSM [CMC1],-0.253,0.26
MALKAEGAALDCFEVTLKCEEGEDEEEAMVVAVIPRPEPMLRVTQQEKTPPPRPSPLEAGSDGCEEPKQQVSWEQEFLVGSSPGGSGRALCMVCGAEIRAPSADTARSHILEQHPHTLDLSPSEKSNILEAWSEGVALLQDVRAEQPSPPNSDSGQDAHPDPDANPDAARMPAEIVVLLDSEDNPSLPKRSRPRGLRPLELPAVPATEPGNKKPRGQRWKEPPGEEPVRKKRGRPMTKNLDPDPEPPSPDSPTETFAAPAEVRHFTDGSFPAGFVLQLFSHTQLRGPDSKDSPKDREVAEGGLPRAESPSPAPPPGLRGTLDLQVIRVRMEEPPAVSLLQDWSRHPQGTKRVGAGDTSDWPTVLSESSTTVAGKPEKGNGV [C11ORF84],0.38,0.023
MALLSRPALTLLLLLMAAVVRCQEQAQTTDWRATLKTIRNGVHKIDTYLNAALDLLGGEDGLCQYKCSDGSKPFPRYGYKPSPPNGCGSPLFGVHLNIGIPSLTKCCNQHDRCYETCGKSKNDCDEEFQYCLSKICRDVQKTLGLTQHVQACETTVELLFDSVIHLGCKPYLDSQRAACRCHYEEKTDL [PLA2G12A],-0.604,0.347
MALVRALVCCLLTAWHCRSGLGLPVAPAGGRNPPPAIGQFWHVTDLHLDPTYHITDDHTKVCASSKGANASNPGPFGDVLCDSPYQLILSAFDFIKNSGQEASFMIWTGDSPPHVPVPELSTDTVINVITNMTTTIQSLFPNLQVFPALGNHDYWPQDQLPVVTSKVYNAVANLWKPWLDEEAISTLRKGGFYSQKVTTNPNLRIISLNTNLYYGPNIMTLNKTDPANQFEWLESTLNNSQQNKEKVYIIAHVPVGYLPSSQNITAMREYYNEKLIDIFQKYSDVIAGQFYGHTHRDSIMVLSDKKGSPVNSLFVAPAVTPVKSVLEKQTNNPGIRLFQYDPRDYKLLDMLQYYLNLTEANLKGESIWKLEYILTQTYDIEDLQPESLYGLAKQFTILDSKQFIKYYNYFFVSYDSSVTCDKTCKAFQICAIMNLDNISYADCLKQLYIKHNY [SMPDL3A],0.322,0.18
MALVTVSRSPPGSGASTPVGPWDQAVQRRSRLQRRQSFAVLRGAVLGLQDGGDNDDAAEASSEPTEKAPSEEELHGDQTDFGQGSQSPQKQEEQRQHLHLMVQLLRPQDDIRLAAQLEAPRPPRLRYLLVVSTREGEGLSQDETVLLGVDFPDSSSPSCTLGLVLPLWSDTQVYLDGDGGFSVTSGGQSRIFKPISIQTMWATLQVLHQACEAALGSGLVPGGSALTWASHYQERLNSEQSCLNEWTAMADLESLRPPSAEPGGSSEQEQMEQAIRAELWKVLDVSDLESVTSKEIRQALELRLGLPLQQYRDFIDNQMLLLVAQRDRASRIFPHLYLGSEWNAANLEELQRNRVTHILNMAREIDNFYPERFTYHNVRLWDEESAQLLPHWKETHRFIEAARAQGTHVLVHCKMGVSRSAATVLAYAMKQYECSLEQALRHVQELRPIARPNPGFLRQLQIYQGILTASRQSHVWEQKVGGVSPEEHPAPEVSTPFPPLPPEPEGGGEEKVVGMEESQAAPKEEPGPRPRINLRGVMRSISLLEPSLELESTSETSDMPEVFSSHESSHEEPLQPFPQLARTKGGQQVDRGPQPALKSRQSVVTLQGSAVVANRTQAFQEQEQGQGQGQGEPCISSTPRFRKVVRQASVHDSGEEGEA [SSH3],0.212,-0.161
MANETQKVGAIHFPFPFTPYSIQEDFMAELYRVLEAGKIGIFESPTGTGKSLSLICGALSWLRDFEQKKREEEARLLETGTGPLHDEKDESLCLSSSCEGAAGTPRPAGEPAWVTQFVQKKEERDLVDRLKAEQARRKQREERLQQLQHRVQLKYAAKRLRQEEEERENLLRLSREMLETGPEAERLEQLESGEEELVLAEYESDEEKKVASRVDEDEDDLEEEHITKIYYCSRTHSQLAQFVHEVKKSPFGKDVRLVSLGSRQNLCVNEDVKSLGSVQLINDRCVDMQRSRHEKKKGAEEEKPKRRRQEKQAACPFYNHEQMGLLRDEALAEVKDMEQLLALGKEARACPYYGSRLAIPAAQLVVLPYQMLLHAATRQAAGIRLQDQVVIIDEAHNLIDTITGMHSVEVSGSQLCQAHSQLLQYVERYGKRLKAKNLMYLKQILYLLEKFVAVLGGNIKQNPNTQSLSQTGTELKTINDFLFQSQIDNINLFKVQRYCEKSMISRKLFGFTERYGAVFSSREQPKLAGFQQFLQSLQPRTTEALAAPADESQASTLRPASPLMHIQGFLAALTTANQDGRVILSRQGSLSQSTLKFLLLNPAVHFAQVVKECRAVVIAGGTMQPVSDFRQQLLACAGVEAERVVEFSCGHVIPPDNILPLVICSGISNQPLEFTFQKRELPQMMDEVGRILCNLCGVVPGGVVCFFPSYEYLRQVHAHWEKGGLLGRLAARKKIFQEPKSAHQVEQVLLAYSRCIQACGQERGQVTGALLLSVVGGKMSEGINFSDNLGRCVVMVGMPFPNIRSAELQEKMAYLDQTLSPRPGTPREGSGGEPVHEGRQPVHRQGHQAPEGFCQRSAPGPAICPAPCPGQAAGLDPSPCGGQSYLWPRHCCCAEVSPGEVGLFLMGNHTTAWRRALPLSCPLETVFVVGVVCGDPVTKVKPRRRVWSPECCQDPGTGVSSRRRKWGNPE [DDX11],-0.119,-0.0575
MAP3K1,-0.0921,-0.131
MAPALLLIPAALASFILAFGTGVEFVRFTSLRPLLGGIPESGGPDARQGWLAALQDRSILAPLAWDLGLLLLFVGQHSLMAAERVKAWTSRYFGVLQRSLYVACTALALQLVMRYWEPIPKGPVLWEARAEPWATWVPLLCFVLHVISWLLIFSILLVFDYAELMGLKQVYYHVLGLGEPLALKSPRALRLFSHLRHPVCVELLTVLWVVPTLGTDRLLLAFLLTLYLGLAHGLDQQDLRYLRAQLQRKLHLLSRPQDGEAE [NRM],-0.275,0.167
MAPDPWFSTYDSTCQIAQEIAEKIQQRNQYERKGEKAPKLTVTIRALLQNLKEKIALLKDLLLRAVSTHQITQLEGDRRQNLLDDLVTRERLLLASFKNEGAEPDLIRSSLMSEEAKRGAPNPWLFEEPEETRGLGFDEIRQQQQKIIQEQDAGLDALSSIISRQKQMGQEIGNELDEQNEIIDDLANLVENTDEKLRNETRRVNMVDRKSASCGMIMVILLLLVAIVVVAVWPTN [STX8],0.624,-0.0243
MAPVRRSAKWRPGGIEARGEGVSTVGYRNKNVRQKTWRPNHPQAFVGSVREGQGFAFRRKLKIQQSYKKLLRKEKKAQTSLESQFTDRYPDNLKHLYLAEEERHRKQARKVDHPLSEQVHQPLLEEQCSIDEPLFEDQCSFDQPQPEEQCIKTVNSFTIPKKNKKKTSNQKAQEEYEQIQAKRAAKKQEFERRKQEREEAQRQYKKKKMEVFKILNKKTKKGQPNLNVQMEYLLQKIQEKC [CCDC59],-0.512,0.278
MARLTKRRQADTKAIQHLWAAIEIIRNQKQIANIDRITKYMSRVHGMHPKETTRQLSLAVKDGLIVETLTVGCKGSKAGIEQEGYWLPGDEIDWETENHDWYCFECHLPGEVLICDLCFRVYHSKCLSDEFRLRDSSSPWQCPVCRSIKKKNTNKQEMGTYLRFIVSRMKERAIDLNKKGKDNKHPMYRRLVHSAVDVPTIQEKVNEGKYRSYEEFKADAQLLLHNTVIFYGADSEQADIARMLYKDTCHELDELQLCKNCFYLSNARPDNWFCYPCIPNHELVWAKMKGFGFWPAKVMQKEDNQVDVRFFGHHHQRAWIPSENIQDITVNIHRLHVKRSMGWKKACDELELHQRFLREGRFWKSKNEDRGEEEAESSISSTSNEQLKVTQEPRAKKGRRNQSVEPKKEEPEPETEAVSSSQEIPTMPQPIEKVSVSTQTKKLSASSPRMLHRSTQTTNDGVCQSMCHDKYTKIFNDFKDRMKSDHKRETERVVREALEKLRSEMEEEKRQAVNKAVANMQGEMDRKCKQVKEKCKEEFVEEIKKLATQHKQLISQTKKKQWCYNCEEEAMYHCCWNTSYCSIKCQQEHWHAEHKRTCRRKR [ZMYND11],-2.1,0.83
MARTLEPLAKKIFKGVLVAELVGVFGAYFLFSKMHTSQDFRQTMSKKYPFILEVYYKSTEKSGMYGIRELDQKTWLNSKN [CEBPZOS],-0.306,-0.012
MASASARGNQDKDAHFPPPSKQSLLFCPKSKLHIHRAEISKIMRECQEESFWKRALPFSLVSMLVTQGLVYQGYLAANSRFGSLPKVALAGLLGFGLGKVSYIGVCQSKFHFFEDQLRGAGFGPQHNRHCLLTCEECKIKHGLSEKGDSQPSAS [OCIAD2],0.0856,-0.0442
MASKRKSTTPCMIPVKTVVLQDASMEAQPAETLPEGPQQDLPPEASAASSEAAQNPSSTDGSTLANGHRSTLDGYLYSCKYCDFRSHDMTQFVGHMNSEHTDFNKDPTFVCSGCSFLAKTPEGLSLHNATCHSGEASFVWNVAKPDNHVVVEQSIPESTSTPDLAGEPSAEGADGQAEIIITKTPIMKIMKGKAEAKKIHTLKENVPSQPVGEALPKLSTGEMEVREGDHSFINGAVPVSQASASSAKNPHAANGPLIGTVPVLPAGIAQFLSLQQQPPVHAQHHVHQPLPTAKALPKVMIPLSSIPTYNAAMDSNSFLKNSFHKFPYPTKAELCYLTVVTKYPEEQLKIWFTAQRLKQGISWSPEEIEDARKKMFNTVIQSVPQPTITVLNTPLVASAGNVQHLIQAALPGHVVGQPEGTGGGLLVTQPLMANGLQATSSPLPLTVTSVPKQPGVAPINTVCSNTTSAVKVVNAAQSLLTACPSITSQAFLDASIYKNKKSHEQLSALKGSFCRNQFPGQSEVEHLTKVTGLSTREVRKWFSDRRYHCRNLKGSRAMIPGDHSSIIIDSVPEVSFSPSSKVPEVTCIPTTATLATHPSAKRQSWHQTPDFTPTKYKERAPEQLRALESSFAQNPLPLDEELDRLRSETKMTRREIDSWFSERRKKVNAEETKKAEENASQEEEEAAEDEGGEEDLASELRVSGENGSLEMPSSHILAERKVSPIKINLKNLRVTEANGRNEIPGLGACDPEDDESNKLAEQLPGKVSCKKTAQQRHLLRQLFVQTQWPSNQDYDSIMAQTGLPRPEVVRWFGDSRYALKNGQLKWYEDYKRGNFPPGLLVIAPGNRELLQDYYMTHKMLYEEDLQNLCDKTQMSSQQVKQWFAEKMGEETRAVADTGSEDQGPGTGELTAVHKGMGDTYSEVSENSESWEPRVPEASSEPFDTSSPQAGRQLETD [ZHX3],0.105,-0.0607
MASNFKKANMASSSQRKRMSPKPELTEEQKQEIREAFDLFDADGTGTIDVKELKVAMRALGFEPKKEEIKKMISEIDKEGTGKMNFGDFLTVMTQKMSEKDTKEEILKAFKLFDDDETGKISFKNLKRVAKELGENLTDEELQEMIDEADRDGDGEVSEQEFLRIMKKTSLY [CETN2],0.117,0.68

# Reference: the supplement of paper PMC5998384
